{
  "source": "paper PMC10080691",
  "about": "“Enzyme-Responsive Double-Locked Photodynamic Molecular Beacon for Targeted Photodynamic Anticancer Therapy” (Journal of the American Chemical Society, 2023)",
  "key": {"[1]": {"system": "A549 human lung carcinoma cells", "assay": "Intracellular fluorescence by flow cytometry", "type": "cell-based", "description": "The cellular uptake of 1 was studied using a range of cell lines with different expression levels of MMP-2, namely the MMP-2-overexpressed A549 human lung carcinoma cells[73] and U-87 MG human glioblastoma cells,[74] as well as the low MMP-2-expressed HeLa human cervical carcinoma cells[75] and HEK-293 human embryonic kidney normal cells.[76] The cells were incubated with 1 (2 μM) in a serum-free medium for 1 h and then in the neat medium for a further 6 h to provide sufficient time for enzymatic cleavage. […] Similar results were obtained by flow cytometry (Figure 5b). The quantified fluorescence intensity for A549 cells was 3.8-fold that for HEK-293 cells. […] After subsequent cleavage of the remaining GFLG linker by the intrinsic cathepsin B inside the cells, the probe was activated favorably, leading to higher intracellular fluorescence intensity.\nThe cells were pretreated with SB-3CT (10 μM) and/or CA-074 Me (25 μM) or simply the neat medium for 2 h, followed by incubation with 1 (2 μM) for a further 1 h. […] The fluorescence images of the cells under all these conditions were captured using a confocal laser scanning microscope. […] For the cells with pretreatment with both inhibitors, fluorescence due to 1 could hardly be seen. Similarly, for the cells being incubated with 14, the intracellular fluorescence was negligible. […]\n(§1) Confocal Fluorescence Microscopic Studies […]"}, "skin of nude mice": {"system": "skin of nude mice", "assay": "In vivo photodynamic effect on skin", "conditions": "intravenous 20 nmol", "protocol": "The mice were first intravenously injected with either 1 or 6 (20 nmol) in 200 μL of distilled water containing 3% DMSO and 0.5% Tween 80 (v/v). The whole-body fluorescence images of the mice were monitored using an infrared imaging system over a period of 24 h.\nAt 6 h post-injection of 1 or 6, the mice were irradiated with the aforementioned laser source (680 nm, 0.3 W cm^–2) on a region of the skin (marked in Figure 8d) for 10 min, which were the conditions used for in vivo PDT as described above. The appearance of the irradiated region was then examined after 24 h. […] The skin tissues of these mice were then harvested and examined using the TUNEL assay.\nFurther evidence was obtained by the H&E staining of these skin tissues.\nFemale Balb/c nude mice (20–25 g) were injected with a solution of 1 or 6 (20 nmol) in 200\nμL of distilled water containing 3% DMSO and 0.5% Tween 80 (v/v) through the tail vein.\nvivo fluorescence imaging was performed before and after the injection at different time points\nup to 24 h with an Odyssey infrared imaging system (excitation wavelength = 680 nm, emission\nwavelength ≥ 700 nm). The images were digitized and analyzed using an Odyssey imaging\nThree mice were used for each comp ound. To study the\nphotodynamic effect of these two compounds on the skin of the mice, a region of the skin was\nilluminated with a diode laser (Biolitec Ceralas) at 680 nm operated at 0.24 W at 6 h post -\ninjection of these compounds. Illumination on a circu lar spot with a diameter of 1.0 cm (fluence\nrate = 0.3 W cm-2) for 10 min led to a total fluence of 180 J cm–2. After 24 h, the mice were\nsacrificed, and then the skin tissues were harvested. They were fixed with 4%\nparaformaldehyde, dehydrated in an alcohol series, mixed with solutions of xylene and paraffin,\nand then embedded in paraffin. The tissue sections were prepared by a Leica RM2235\nmicrotome. After the H&E staining, the tissues were examined with a Nikon Eclipse Ni-E\nupright fluorescence microscope. For the TUNEL staining assay, the skin tissues were dewaxed\nand rehydrated in an alcohol series and then incubated with a Proteinase K solution (20 μg mL-\n1) at room temperature for 30 min. After being rinsed with PBS three times, the tissue slides\nwere stained with 50 μL of Nucleotide Mix (a mixture of terminal deoxynucleotidyl transferase\nand cyanine 3-labeled deoxyuridine triphosphate) of the one -step TUNEL assay kit (Beyotime,\nShanghai, China), and then the nuclei were stained with Hochest 33342 (10 μM) for 1 h at\nroom temperature. After being rinsed with PBS for three times, the tissue slides were examined\nwith a Zeiss LSM 880 NLO laser scanning microscope equipped with two solid-state 405 and\n561 nm lasers. Hoechst 33342 was excited at 405 nm and its fluorescence was monitored at\n410−500 nm, while the TUNEL staining cyanine 3 dye was excited at 561 nm and its\nfluorescence was monitored at 570−620 nm."}, "[2]": {"system": "HeLa human cervical carcinoma cells", "assay": "Intracellular fluorescence by flow cytometry", "type": "cell-based", "conditions": "2 μM 1 h + 6 h, SB-3CT (10 μM) and CA-074 Me (25 μM) 2 h pretreatment", "description": "The cells were pretreated with SB-3CT (10 μM) and/or CA-074 Me (25 μM) or simply the neat medium for 2 h, followed by incubation with 1 (2 μM) for a further 1 h. After being rinsed with PBS, the cells were incubated in the medium for a further 6 h. As a negative control, the cells were simply incubated with 14 (2 μM) for 1 h, followed by post-incubation in the medium for 6 h. The fluorescence images of the cells under all these conditions were captured using a confocal laser scanning microscope. […] For the cells with pretreatment with both inhibitors, fluorescence due to 1 could hardly be seen. Similarly, for the cells being incubated with 14, the intracellular fluorescence was negligible. […] Again, for PMB 1, the fluorescence intensity was the highest for the cells without being pretreated with the two inhibitors. […] For HeLa cells being treated with 1, the fluorescence intensity of the native cells (i.e., the dual activated condition) was just 3.2-fold that of the cells under the dual inhibited condition. […]\nas §1\nThe cells were then rinsed with PBS twice before being examined with a Leica TCS SP8 high - speed confocal microscope equipped with a 638 nm laser. The fluorescence was monitored at 650−750 nm. The images were digitized and analyzed using a Leica Application Suite X […]"}, "[3]": {"conditions": "with laser irradiation (680 nm, 0.3 W cm-2, 10 min), 24 h after"}},
  "data": [
    {"smiles": "CCN(CC)c1ccc2nc3ccc(/N=N/c4ccc(N(C)CCCNC(=O)OC[C@@H]5[C@@H]6CCc7nnn(CC(=O)NCCCC[C@@H]8NC(=O)CNC(=O)[C@H](CCCCN)NC(=O)[C@H](CCCNC(=N)N)NC(=O)[C@H](C(C)C)NC(=O)CNC(=O)[C@H](CC(C)C)NC(=O)[C@@H]9CCCN9C(=O)[C@H](CCCCN)NC(=O)[C@@H](N)CSCc9cc(COc%10ccc(C%11=C%12C(C)=C(I)C(/C=C/c%13ccc(OCCOCCOCCOC)cc%13)=[N+]%12[B-](F)(F)n%12c(/C=C/c%13ccc(OCCOCCOCCOC)cc%13)c(I)c(C)c%12%11)cc%10)cc(c9)CSC[C@@H](C(N)=O)NC(=O)[C@H](CCCCN)NC(=O)[C@H](CCCCN)NC(=O)CNC(=O)[C@H](CC(C)C)NC(=O)[C@H](Cc9ccccc9)NC(=O)CNC(=O)[C@H](CCCCN)NC(=O)CNC8=O)c7CC[C@@H]65)cc4)cc3[n+](-c3ccccc3)c2c1", "note": "[compound 1]", "values": [
      {"measurement": "intracellular fluorescence intensity, A549 relative to HEK-293 cells", "setting": "[1]; 2 μM, 1 h in serum-free medium, then 6 h in neat medium, three independent experiments", "value": 3.8, "unit": "fold"},
      {"measurement": "intracellular fluorescence intensity, untreated cells relative to cells pretreated with the two inhibitors", "setting": "[1]; A549, 2 μM 1 h + 6 h, SB-3CT (10 μM) and CA-074 Me (25 μM) 2 h pretreatment", "value": 5.6, "unit": "fold"},
      {"measurement": "appearance of irradiated skin region after 24 h", "setting": "skin of nude mice; laser 680 nm, 0.3 W cm-2, 10 min at 6 h post-injection", "value": "no noticeable change"},
      {"measurement": "H&E staining of skin tissue", "setting": "skin of nude mice; [3]", "value": "virtually intact"},
      {"measurement": "TUNEL assay of skin tissue", "setting": "skin of nude mice; [3]", "value": "negligible"},
      {"measurement": "H&E staining of skin tissue", "setting": "skin of nude mice; without laser irradiation", "value": "virtually intact"},
      {"measurement": "TUNEL assay of skin tissue (fluorescence intensity)", "setting": "skin of nude mice; without laser irradiation", "value": "negligible"},
      {"measurement": "intracellular fluorescence intensity, native cells relative to dual inhibited condition", "setting": "[2]", "value": 3.2, "unit": "fold"}
    ]}
  ]
}
